Results published in the nanobody polyreactivity screen of Harvey et al. (2022).

Experiment: yeast display, Sf9 membrane polyspecificity reagent, FACS + sequencing; frameworks hold sequencing errors
Procedure, shortened: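 A synthetic nanobody library was expressed on Saccharomyces cerevisiae BJ5465 by galactose induction for 36–48 hours. The library was stained for 1 hour at 4 °C with 10% biotinylated, detergent-solubilized Sf9 membrane reagent and enriched with streptavidin microbeads before FACS. Low and high (top ~1%) gates were set on anti-HA fluorescence for expression and streptavidin fluorescence for reagent binding, and each polyreactivity label reflects the gate of origin.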

Sequence | polyreactivity (PSR sort gate)
QVQIVESGGGLVQAGGSLRLSCAASGFIFFAYAMGWYRQAPGKERELFAAISRTGGSTYYADSVKGRFTISRDNAKNTVYLQMNSLKPEDTAVYYCAADGGYYGRDYWGQGTQVTVSS | high polyreactivity
QVQIVESGGGLVQAGGSLRLSCAASGFTFVYYAMGWYRQAPGKERELVAAISKRGGSTYYADSVKGRFTISRDNAKNTVYLQMNSLKPEDTAVYYCNAGYGRWQRHDYWGQGTLVTVSS | high polyreactivity
QVQIVESGGGLVQAGGSLRLSCAASGFTFWNYAMGWYRQAPGKERELVATITRSGGRTYYADSVKGRFTISRDHAKNTGYLQMNSLIPEDTAVYYCSARVWPVVYSWGYNYLGQGTQVTVSS | high polyreactivity
QVQIVESGGGLVQAGGSLRLSCAASGGIFEINVLGWYRQAPGKERELVAAISSRGGSTYYADSVKGRFTISRDNAKNTVYLQMNSLKPEDTAVYYCARRYRPKYGYWGQGTQVTVSS | high polyreactivity
QVQIVESGGGLVQAGGSLRLSCAASGIIFVRYDIGWYRPAPGKERELVAAISWSGGRTYYADSVKGRFTISRDNAKNTVYLQMNSLKPEDTEVYYCNAKGSYWWYQKDYWGQGTQVTVSS | high polyreactivity
QVQIVESGGGLVQAGGSLRLSCAASGITFYGYAMGWYRQAPGKERELVAVITSSRSSTYYADSVKGRFTISRDNAKNTFFLQMNSLKPEDTEVYYCNPRPGRRSLRSRTYDYWGQGTQVTVSS | high polyreactivity
QVQIVESGGGLVQAGGSLRLSCAASGLIFVVYAMGWNRQATGIERELVADISSVGRTSYADSVKGSFTISRDNAKNNVYLQMNSLKPEDTAVYYCNAYPVFNQYYCWRYDYLGQGTQVTVSS | low polyreactivity
QVQIVESGGGLVQAGGSLRLSCAASGLIFYAYAMGWYRQAPGKERELVAAMSYSGGSTYYADSVKGRFTISRDLAKNTVYLQMNSLKPEDTAVYYCAADDGISTYEYWGQGTQVTVSS | high polyreactivity
QVQIVESGGGLVQAGGSLRLSCAASGLIIPFYAMGWYRQAPGKERELVAAISWSAGSTYYADSVKGRFTISRDNAKNTVYLQMNSLKPEDTAGYYCAATAYYYYDYDYWGQGTQVTVSS | low polyreactivity
QVQIVESGGGLVQAGGSLRLSCAASGLTFRSYTIGWYRHAPGKERELVAAISSGGSTYYADSVKGRFTISRDNAKNTVYLQMNSRKPEDTAVYFCAAPRGHGKYYSWGQGTQVTVSS | high polyreactivity
QVQIVESGGGLVQAGGSLRLSCAASGNTFPAYAMGWYRQAPGKERELVATISWSTGSTNYADSVKGRFTISRDNANNTVYLQMNSLKPEDTAVYYCNKRYPTDQMYYWGQGTLVTVSS | low polyreactivity
QVQIVESGGGLVQAGGSLRLSCAASGRIFAYNAMGWYRQAPGKERELVVAISWTGGRTSYADSVKGRFTISCDNAKNTVYLQMNSLKPEDTAVYYCNARYRYRLRGYDYWGQGTQVTVSS | high polyreactivity
QVQIVESGGGLVQAGGSLRLSCAASGRIFDDYAMGWYRQAPGKEREFVAAISTSGGSTYYADSVMGRFTISRDNAKNTVYLKMNSLKPEDTAVYYCNKYGYYGWFGSRYWHDYWGQGTQVTVAS | high polyreactivity
QVQIVESGGGLVQAGGSLRLSCAASGRIFERYAMGWYRQAPGKERELVAGISISGGGTYYADSVKGRFTISRDNAKNTVYLQMNSLKPEHNAVYYCAGTFPREEYGYWGEGTQVTVSS | low polyreactivity
QVQIVESGGGLVQAGGSLRLSCAASGRIFGYNAMGWYRQAPGKERELVATITVGGGSTYYADSVKGRFTISRDNAKNTVYLQMNSLKPEDTAVYYCAADSGYQPVLHRGYYRFNYWGQGTQVTVSS | low polyreactivity
QVQIVESGGGLVQAGGSLRLSCAASGRIFKLYAMGWSRQAPGKERELVAAITRRGGSTSYADSVKGRFTISRDNAKNTVYLQMNSLKPEDTAVYYCAASYTGRTVVQGYEYWGQGTQVTVSS | high polyreactivity
QVQIVESGGGLVQAGGSLRLSCAASGRIFVYNAMGWYRQAPGKERELVAAISSTGSTNYADSVKGRFTISRDNAKNTVYLQMNSLKPEDTAVYYCAAVYYFYGFSGYYGQYDYWGQGSQVTVSS | low polyreactivity
QVQIVESGGGLVQAGGSLRLSCAASGRIFYGYAMGWYRQAPGKEREFVARINVSGTSTFYADSVKGRFTISRDNAKNTVYLQMNSLKPEDTAVYYCAARGLPSNYYYYVHGYIMDYWGQGTQVTVSS | low polyreactivity
QVQIVESGGGLVQAGGSLRLSCAASGRILEGYAMGWYRQAPGKERELVAAISFSTTTTYYADSVKGRFTISRDNAKNTVYLQMNSLKPEDTAVYYCAADSQQSDYDYWGQGTQVTVSS | high polyreactivity
QVQIVESGGGLVQAGGSLRLSCAASGRSFYKYAMGWYRQAPGKERELVAAISKSGGRTYYADSVKGRFTISRDNAKNTVYLQMNSLKPEDTAVYYCAAEPFIPDQSRYYYWGQGTQVTVSS | high polyreactivity
QVQIVESGGGLVQAGGSLRLSCAASGRTFNGYAMGWYRQAPGKERELVARITYRGGGTYYADSVKGRFTISRDNAKNTVYLQMNSLKPEDTAVYYCNAVYHSSGRMGYWGQGTQVTLSS | high polyreactivity

Sequence | polyreactivity (PSR sort gate)
QVQIVESGGGLVQAGGSLRLSCAASGRTFRTYAMGWSRPAPGKEREMVAAIRSNAGSTYYADSVKGRFTISRDNAKNTVYLQMHSLKPEDTAVYYCAKSYRSSRRYNYWGQGTQVTVSS | high polyreactivity
QVQIVESGGGLVQAGGSLRLSCAASGRTFTHYAMGWYRQAPGKERELVAAISSGGGTYYADSVKGRFTIARDNAKKTVYLQMNSLKPEDTAVYYCNADYSNYLDPFRTYGYWGQGTQVTVSS | low polyreactivity
QVQIVESGGGLVQAGGSLRLSCAASGRTLRYYSMGWYRQAPGKERELVAAISGSGGRTYYADSVKGRFTISRDNAKNTVYLQMNSLKPVDTAVYYCAKRYYRTAGDMDYWGLGTQVTVSS | high polyreactivity
QVQIVESGGGLVQAGGSLRLSCAASGSIFGPYVMGWYRQAPGKERELVAAISKSRGSTYYADSVKGRFTISRDNAKNTVYLQMNSLKPEDTAVYYCATDYLGGGKRYYYWGQGTQVTVSS | high polyreactivity
QVQIVESGGGLVQAGGSLRLSCAASGSIFGYAMGWYRPAPGKERELVAAISFSGVSTYYADSVKGRFTISRDNAKNTVYLQMNSLKPEDTAVYYCNAYSDGDEDYWGQGTQVTVSS | low polyreactivity
QVQIVESGGGLVQAGGSLRLSCAASGSIFQFYAMGWSRQAPGKERELVAVITTSGVSTYYADSVKGRFTISRDNAKYTVYLQMNSLKPEDTAVYYCAADDYYLAGDYWGQGTQVTVSS | low polyreactivity
QVQIVESGGGLVQAGGSLRLSCAASGSIFVVNAMGWYRQAPRKERELVAAIDWSGDTTYYADSEKGRFTISRDYAKNTVYFQMNSLKPEDTAVYYCAAEYEFHEYDYWGQGTQVTVSS | high polyreactivity
QVQIVESGGGLVQAGGSLRLSCAASGSTFARNAMGWYRQAPGKEREFVASIRWGGVSTYYADSVKGRFTISRDNAKNTVYLQMNSLKPEDTAVYYCATGRKNAAQRWGYYYWGQGTQVTVSS | high polyreactivity
QVQIVESGGGLVQAGGSLRLSCAASGSTFGGNAMGWYRQAPGKERDLVAVISKRGGSKYYADSVKGRFTISRDNAKNTVYLQMNSLKPEDTAVYYCAATYSRYWSPTYDYWGQGTQVNVSS | high polyreactivity
QVQIVESGGGLVQAGGSLRLSCAASGSTFGRYAMGWYRQAPGKEREMVAAISASGGSTYYADSVKGRFTISRDYAKNTVYVQMNSLKPEDTAVYYCAALIDVITCQYDYWGHGTQVTVSS | high polyreactivity
QVQIVESGGGLVQAGGSLRLSCAASGSTFRRYVMGWYRQAPGKERELVAAISWSGTSTNYADSLKGRFTISRDNAKNTVYLHMNSLKPEDTAVYYCATQSLYYRWGLDYCGQGTQVTVSS | high polyreactivity
QVQIVESGGGLVQAGGSLRLSCAASGSTFTFYAMGSYRQAPGKERELVASITQSTGSTHYADSVKGRFTISRDNEKNTVFLQMNSLNPEDTAVYYCKAQKIVYYLVTLFPYYYWGQGSQVTVSS | low polyreactivity
QVQIVESGGGLVQAGGSLRLSCAASGYIFPYYAMGWYRQAPGKERELVAGITTDGSSTYYADSVKGRFTISRDNAKNTVYLQMNSLNPEDTAVYYFYVYPGYTWGWYDYWGQGTQVTVSS | low polyreactivity
QVQIVESGGGLVQAGGSLRLSCAASGYIFSVYAMGWYRQAPGKERELVAAITFRTGRTYYADSVKWRFTISRDNAKNTVYLQMNSLKPEDTAVSYCAADGYWTTFYNLYGYWGQGTQVTVSS | high polyreactivity
QVQIVESGGGLVQAGGSLRLSCADSGRIFYLYDMGWYRQAPGKERELVATISCSGGSTYYADSVMGRFTISRDNAKNTVYLQMNSLKPEDTALYYCAAVSVSSWYDYWGQGTQVTVSS | low polyreactivity
QVQIVESGGGLVQAGGSLRLSCASSGRIFHRYAMGWYRQAPGKERELVAAISYSTARTYYADSVKGRFTISRDNAKNTVYLQMNSLKPEDTAVYYCAAKDERRSFGMGYWGQGTQVTVSS | high polyreactivity
QVQIVESGGGLVQAGGSLRLSCPASGGIFTKNAMGWYRQAPGKERELVAGISRTGGNTYYADSVKGRFTISRDNAKNNVYLQMKSLKPEDTAVYYCKALYGGPHRLRYDYWGQGTQVTVSS | low polyreactivity
QVQIVESGGGLVQAGGSLRLSGAASGLIFKYYDMGWSRQAPGKERELVASISRSGGRTYYADSVMGRFTISRDNAMNTVYLQMNSLKPEDTAVYYCNADTWLYWDGDDYWGQGTQVTVSS | high polyreactivity
QVQIVESGGGLVQAGGSLRLTCAASGFTFGPYAMGWYRQEPGKERELVAAITVNGSSTYADSVKGRFTISRDNAKNTVVLQMNSLKPEDTAVYYCAATVYPGGPYGGDSDYWGQGTQVTVSS | low polyreactivity
QVQIVESGGGLVQAGGSLRLTCAASGLTFTGNAMGWYIQAPGKERELVAAISWSGGSKYYADSVKGRYTISRDNAKNTVYLQMNSLQPEDTAVYYCADPDARYDYWGQGTQVTVSS | high polyreactivity
